Results from patent US20220136002A1 (JACKSON LABORATORY, published 2022).

Biological target: T1, mouse FLT3 receptor (mouse, UniProt Q00342 28-1000)
T1 construct: whole, on cells; Endogenous receptor of the NSG host mouse, knocked out in the NSG Flt3null-Tg(Hu-FLT3L) line; also called CD135
T1 sequence (looked up): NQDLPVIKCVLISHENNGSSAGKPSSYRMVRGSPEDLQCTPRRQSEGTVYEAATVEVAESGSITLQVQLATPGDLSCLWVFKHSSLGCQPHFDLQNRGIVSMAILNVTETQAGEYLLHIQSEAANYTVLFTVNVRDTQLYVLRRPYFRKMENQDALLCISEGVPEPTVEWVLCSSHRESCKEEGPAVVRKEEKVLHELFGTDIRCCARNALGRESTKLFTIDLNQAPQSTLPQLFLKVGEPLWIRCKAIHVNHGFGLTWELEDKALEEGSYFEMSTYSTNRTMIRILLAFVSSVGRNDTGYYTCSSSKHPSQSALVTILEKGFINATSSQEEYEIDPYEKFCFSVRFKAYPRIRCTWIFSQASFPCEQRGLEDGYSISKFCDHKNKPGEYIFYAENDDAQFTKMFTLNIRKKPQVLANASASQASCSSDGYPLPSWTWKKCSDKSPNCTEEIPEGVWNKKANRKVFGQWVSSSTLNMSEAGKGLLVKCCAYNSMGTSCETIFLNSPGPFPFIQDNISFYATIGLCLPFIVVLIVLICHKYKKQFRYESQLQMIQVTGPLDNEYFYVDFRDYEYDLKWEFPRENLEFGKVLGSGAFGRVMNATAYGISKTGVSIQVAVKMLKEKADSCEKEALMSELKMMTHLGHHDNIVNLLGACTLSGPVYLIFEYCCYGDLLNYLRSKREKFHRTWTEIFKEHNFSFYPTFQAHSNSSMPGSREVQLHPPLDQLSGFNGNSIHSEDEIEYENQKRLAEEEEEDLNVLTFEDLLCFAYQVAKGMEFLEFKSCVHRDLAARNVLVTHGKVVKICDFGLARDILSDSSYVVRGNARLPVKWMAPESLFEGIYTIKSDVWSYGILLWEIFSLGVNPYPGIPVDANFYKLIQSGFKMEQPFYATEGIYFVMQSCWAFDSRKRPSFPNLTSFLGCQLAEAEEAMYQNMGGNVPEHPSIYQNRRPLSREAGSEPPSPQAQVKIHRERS
Assay: no direct binding assay; inferred from in vivo mouse genetics (human FLT3L transgenic NSG mice with and without knock-out of mouse Flt3)

binding result: binds
B1: human FLT3 ligand (FLT3L) (ligand, UniProt P49771 27-184, looked up)
chain: TQDCSFQHSPISSDFAVKIRELSDYLLQDYPVTVASNLQDEELCGGLWRLVLAQRWMERLKTVAGSKMQGLLERVNTEIHFVTKCAFQPPPSCLRFVQTNISRLLQETSEQLVALKPWITRQNFSRCLELQCQPDSSTLPPPWSPRPLEATAPTAPQP
notes: Expressed in vivo from a 13.8 kb genomic BAC fragment and circulating in mouse serum; also called Hu-FLT3L
